# Data from IntAct's records for PubMed 31515488.
# B1: Ubiquitin thioesterase OTUB2 (Homo sapiens), Q96DC9 (parent)
# chain: MSETSFNLISEKCDILSILRDHPENRIYRRKIEELSKRFTAIRKTKGDGNCFYRALGYSYLESLLGKSREIFKFKERVLQTPNDLLAAGFEEHKFRNFFNAFYSVVELVEKDGSVSSLLKVFNDQSASDHIVQFLRLLTSAFIRNRADFFRHFIDEEMDIKDFCTHEVEPMATECDHIQITALSQALSIALQVEYVDEMDTALNHHVFPEAATPSVYLLYKTSHYNILYAADKH
# partner: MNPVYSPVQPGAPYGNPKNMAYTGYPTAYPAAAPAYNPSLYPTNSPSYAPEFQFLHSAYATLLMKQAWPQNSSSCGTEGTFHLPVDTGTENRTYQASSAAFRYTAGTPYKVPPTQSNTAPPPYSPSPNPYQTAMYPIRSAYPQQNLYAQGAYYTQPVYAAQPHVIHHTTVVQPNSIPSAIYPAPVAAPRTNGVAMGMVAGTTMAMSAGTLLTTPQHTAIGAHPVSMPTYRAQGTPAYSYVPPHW
# B2: 2'-5'-oligoadenylate synthase 2 (Homo sapiens), P29728 (parent)
# chain: MGNGESQLSSVPAQKLGWFIQEYLKPYEECQTLIDEMVNTICDVLQEPEQFPLVQGVAIGGSYGRKTVLRGNSDGTLVLFFSDLKQFQDQKRSQRDILDKTGDKLKFCLFTKWLKNNFEIQKSLDGFTIQVFTKNQRISFEVLAAFNALSLNDNPSPWIYRELKRSLDKTNASPGEFAVCFTELQQKFFDNRPGKLKDLILLIKHWHQQCQKKIKDLPSLSPYALELLTVYAWEQGCRKDNFDIAEGVRTVLELIKCQEKLCIYWMVNYNFEDETIRNILLHQLQSARPVILDPVDPTNNVSGDKICWQWLKKEAQTWLTSPNLDNELPAPSWNVLPAPLFTTPGHLLDKFIKEFLQPNKCFLEQIDSAVNIIRTFLKENCFRQSTAKIQIVRGGSTAKGTALKTGSDADLVVFHNSLKSYTSQKNERHKIVKEIHEQLKAFWREKEEELEVSFEPPKWKAPRVLSFSLKSKVLNESVSFDVLPAFNALGQLSSGSTPSPEVYAGLIDLYKSSDLPGGEFSTCFTVLQRNFIRSRPTKLKDLIRLVKHWYKECERKLKPKGSLPPKYALELLTIYAWEQGSGVPDFDTAEGFRTVLELVTQYQQLCIFWKVNYNFEDETVRKFLLSQLQKTRPVILDPAEPTGDVGGGDRWCWHLLAKEAKEWLSSPCFKDGTGNPIPPWKVPTMQTPGSCGARIHPIVNEMFSSRSHRILNNNSKRNF
# B3: Protein-lysine N-methyltransferase EEF2KMT (Homo sapiens), Q96G04 (parent)
# chain: MAPEENAGTELLLQSFERRFLAARTLRSFPWQSLEAKLRDSSDSELLRDILHKTVKHPVCVKHPPSVKYARCFLSELIKKHEAVHTEPLDELYEALAETLMAKESTQGHRSYLLPSGGSVTLSESTAIISYGTTGLVTWDAALYLAEWAIENPAVFTNRTVLELGSGAGLTGLAICKMCRPRAYIFSDCHSRVLEQLRGNVLLNGLSLEADITAKLDSPRVTVAQLDWDVATVHQLSAFQPDVVIAADVLYCPEAIMSLVGVLRRLAACREHQRAPEVYVAFTVRNPETCQLFTTELGRAGIRWEVEPRHEQKLFPYEEHLEMAMLNLTL
# B4: Low-density lipoprotein receptor class A domain-containing protein 1 (Homo sapiens), Q5T700 (parent)
# chain: MNKVFPQGENGYTAAESKAHPGGEAGGGHLCCSRRGACLSASLLLLLATVAALIALVTILGLPSCTPGAQACITLTNRTGFLCHDQRSCIPASGVCDGVRTCTHGEDEDESLCRDVPQSLPHFLVAHCGDPASWIYSDQKCDGTNNCGDCSDELSPVTVCPPCGPGWWRCPSTFFKYCDCIPRHLCRDHVQHCSDWSDEYACPGP
# partner: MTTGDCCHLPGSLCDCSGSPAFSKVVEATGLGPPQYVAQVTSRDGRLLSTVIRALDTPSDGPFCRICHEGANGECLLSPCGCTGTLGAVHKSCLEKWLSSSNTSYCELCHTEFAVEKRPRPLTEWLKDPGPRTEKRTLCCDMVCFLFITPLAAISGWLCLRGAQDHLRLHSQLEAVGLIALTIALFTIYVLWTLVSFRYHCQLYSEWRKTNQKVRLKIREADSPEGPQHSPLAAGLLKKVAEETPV
# B5: KH domain-containing, RNA-binding, signal transduction-associated protein 2 (Homo sapiens), Q5VWX1 (parent)
# chain: MEEEKYLPELMAEKDSLDPSFVHASRLLAEEIEKFQGSDGKKEDEEKKYLDVISNKNIKLSERVLIPVKQYPKFNFVGKLLGPRGNSLKRLQEETGAKMSILGKGSMRDKAKEEELRKSGEAKYAHLSDELHVLIEVFAPPGEAYSRMSHALEEIKKFLVPDYNDEIRQEQLRELSYLNGSEDSGRGRGIRGRGIRIAPTAPSRGRGGAIPPPPPPGRGVLTPRGSTVTRGALPVPPVARGVPTPRARGAPTVPGYRAPPPPAHEAYEEYGYDDGYGGEYDDQTYETYDNSYATQTQSVPEYYDYGHGVSEDAYDSYAPEEWATTRSSLKAPPQRSARGGYREHPYGRY
# partner: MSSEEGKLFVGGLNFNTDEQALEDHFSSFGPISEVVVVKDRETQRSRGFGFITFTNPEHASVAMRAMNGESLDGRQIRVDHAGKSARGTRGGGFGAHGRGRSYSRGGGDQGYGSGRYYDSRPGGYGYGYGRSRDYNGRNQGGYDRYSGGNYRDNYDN
# B6: Leucine rich adaptor protein 1 (Homo sapiens), Q96LR2 (parent)
# chain: MEGTVESQTPDLRDVEGKVGRKTPEGLLRGLRGECELGTSGALLLPGASSTGHDLGDKIMALKMELAYLRAIDVKILQQLVTLNEGIEAVRWLLEERGTLTSHCSSLTSSQYSLTGGSPGRSRRGSWDSLPDTSTTDRLDSVSIGSFLDTVAPSELDEQGPPGAPRSEMDWAKVIAGGERARTEVDVAATRLGSLRAVWKPPGERLQGGPPESPEDESAKLGFEAHWFWEQCQDDVTFL
# B7: Zinc finger CCCH-type with G patch domain-containing protein (Homo sapiens), Q8N5A5 (parent)
# chain: MDEESLESALQTYRAQLQQVELALGAGLDSSEQADLRQLQGDLKELIELTEASLVSVRKSSLLAALDEERPGRQEDAEYQAFREAITEAVEAPAAARGSGSETVPKAEAGPESAAGGQEEEEGEDEEELSGTKVSAPYYSSWGTLEYHNAMVVGTEEAEDGSAGVRVLYLYPTHKSLKPCPFFLEGKCRFKENCRFSHGQVVSLDELRPFQDPDLSSLQAGSACLAKHQDGLWHAARITDVDNGYYTVKFDSLLLREAVVEGDGILPPLRTEATESDSDSDGTGDSSYARVVGSDAVDSAQSSALCPSLAVVGSDAVDSGTCSSAFAGWEVHTRGIGSRLLTKMGYEFGKGLGRHAEGRVEPIHAVVLPRGKSLDQCVETLQKQTRVGKAGTNKPPRCRGRGARPGGRPAPRNVFDFLNEKLQGQAPGALEAGAAPAGRRSKDMYHASKSAKRALSLRLFQTEEKIERTQRDIRSIQEALARNAGRHSVASAQLQEKLAGAQRQLGQLRAQEAGLQQEQRKADTHKKMTEF
# partner: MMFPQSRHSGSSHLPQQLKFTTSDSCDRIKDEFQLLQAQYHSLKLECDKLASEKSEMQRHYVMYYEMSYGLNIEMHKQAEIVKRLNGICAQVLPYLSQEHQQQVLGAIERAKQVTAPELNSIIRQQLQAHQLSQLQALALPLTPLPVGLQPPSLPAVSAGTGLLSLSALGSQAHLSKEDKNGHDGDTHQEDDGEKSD
# B8: Tuftelin-interacting protein 11 (Homo sapiens), Q9UBB9 (parent)
# chain: MSLSHLYRDGEGRIDDDDDERENFEITDWDLQNEFNPNRQRHWQTKEEATYGVWAERDSDDERPSFGGKRARDYSAPVNFISAGLKKGAAEEAELEDSDDEEKPVKQDDFPKDFGPRKLKTGGNFKPSQKGFAGGTKSFMDFGSWERHTKGIGQKLLQKMGYVPGRGLGKNAQGIINPIEAKQRKGKGAVGAYGSERTTQSMQDFPVVDSEEEAEEEFQKELSQWRKDPSGSKKKPKYSYKTVEELKAKGRISKKLTAPQKELSQVKVIDMTGREQKVYYSYSQISHKHNVPDDGLPLQSQQLPQSGKEAKAPGFALPELEHNLQLLIDLTEQEIIQNDRQLQYERDMVVNLFHELEKMTEVLDHEERVISNLSKVLEMVEECERRMQPDCSNPLTLDECARIFETLQDKYYEEYRMSDRVDLAVAIVYPLMKEYFKEWDPLKDCTYGTEIISKWKSLLENDQLLSHGGQDLSADAFHRLIWEVWMPFVRNIVTQWQPRNCDPMVDFLDSWVHIIPVWILDNILDQLIFPKLQKEVENWNPLTDTVPIHSWIHPWLPLMQARLEPLYSPIRSKLSSALQKWHPSDSSAKLILQPWKDVFTPGSWEAFMVKNIVPKLGMCLGELVINPHQQHMDAFYWVIDWEGMISVSSLVGLLEKHFFPKWLQVLCSWLSNSPNYEEITKWYLGWKSMFSDQVLAHPSVKDKFNEALDIMNRAVSSNVGAYMQPGARENIAYLTHTERRKDFQYEAMQERREAENMAQRGIGVAASSVPMNFKDLIETKAEEHNIVFMPVIGKRHEGKQLYTFGRIVIYIDRGVVFVQGEKTWVPTSLQSLIDMAK
# partner: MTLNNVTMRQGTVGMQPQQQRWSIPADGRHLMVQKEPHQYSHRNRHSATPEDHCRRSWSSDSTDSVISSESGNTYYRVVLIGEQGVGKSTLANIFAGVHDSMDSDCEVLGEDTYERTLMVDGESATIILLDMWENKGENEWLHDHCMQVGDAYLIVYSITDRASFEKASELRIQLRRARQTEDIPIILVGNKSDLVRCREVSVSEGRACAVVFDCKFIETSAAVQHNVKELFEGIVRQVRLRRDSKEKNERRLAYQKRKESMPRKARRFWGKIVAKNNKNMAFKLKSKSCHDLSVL
# Variants of: B1
# Conditions: with FAM168A
row,effect of a mutation on the interaction,Variant
1,disrupting interaction strength,R146P

# Variants of: B2
# Conditions: with clk3_human CLK3, P49761
# Chain of clk3_human CLK3, P49761 (P49761 whole entry, looked up): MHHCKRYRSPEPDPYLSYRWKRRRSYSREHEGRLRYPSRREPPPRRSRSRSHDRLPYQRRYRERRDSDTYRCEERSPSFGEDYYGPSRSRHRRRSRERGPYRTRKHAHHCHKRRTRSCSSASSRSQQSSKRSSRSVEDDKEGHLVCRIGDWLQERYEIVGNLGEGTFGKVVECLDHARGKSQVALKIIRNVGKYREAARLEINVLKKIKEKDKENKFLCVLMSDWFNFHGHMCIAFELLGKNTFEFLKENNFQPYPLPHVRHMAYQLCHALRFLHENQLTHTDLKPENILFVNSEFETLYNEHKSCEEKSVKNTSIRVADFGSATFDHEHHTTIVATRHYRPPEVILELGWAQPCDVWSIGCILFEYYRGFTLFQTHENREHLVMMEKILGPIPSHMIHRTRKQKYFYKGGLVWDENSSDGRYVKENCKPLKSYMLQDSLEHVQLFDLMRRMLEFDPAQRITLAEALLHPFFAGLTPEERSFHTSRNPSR
row,effect of a mutation on the interaction,Variant
1,with no effect,V620M
2,disrupting interaction strength,R535Q

# Variants of: B3
# Conditions: with prdc1_human PRTFDC1, Q9NRG1
# Chain of prdc1_human PRTFDC1, Q9NRG1 (Q9NRG1 whole entry): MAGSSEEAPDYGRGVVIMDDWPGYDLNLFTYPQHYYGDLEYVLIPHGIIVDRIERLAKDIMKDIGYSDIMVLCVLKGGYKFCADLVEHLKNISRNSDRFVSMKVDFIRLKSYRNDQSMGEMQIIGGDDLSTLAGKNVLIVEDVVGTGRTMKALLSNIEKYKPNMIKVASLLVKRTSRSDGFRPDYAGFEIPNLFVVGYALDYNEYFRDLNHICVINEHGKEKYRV
row,effect of a mutation on the interaction,Variant
1,with no effect,S123C

# Variants of: B4
# Conditions: with marh2_human MARCHF2, Q9P0N8
row,effect of a mutation on the interaction,Variant
1,with no effect,E108K

# Variants of: B5
# Conditions: with rbm3_human RBM3, P98179
row,effect of a mutation on the interaction,Variant
1,with no effect,P333L

# Variants of: B6
# Conditions: with tpm3_human TPM3, P06753
# Chain of tpm3_human TPM3, P06753 (P06753 whole entry): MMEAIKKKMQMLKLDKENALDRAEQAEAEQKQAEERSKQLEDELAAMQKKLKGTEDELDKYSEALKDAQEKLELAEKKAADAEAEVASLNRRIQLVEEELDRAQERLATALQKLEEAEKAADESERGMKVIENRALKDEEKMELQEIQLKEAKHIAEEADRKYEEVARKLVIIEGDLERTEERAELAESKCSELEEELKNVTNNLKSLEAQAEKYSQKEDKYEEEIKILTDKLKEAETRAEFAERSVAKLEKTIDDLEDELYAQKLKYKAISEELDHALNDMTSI
row,effect of a mutation on the interaction,Variant
1,with no effect,Q207R
2,with no effect,M60L

# Variants of: B7
# Conditions: with tle5_human TLE5, Q08117
row,effect of a mutation on the interaction,Variant
1,with no effect,S61R

# Variants of: B8
# Conditions: with gem_human GEM
row,effect of a mutation on the interaction,Variant
1,with no effect,R8Q
2,with no effect,S688L
